Assay results from publication PMC6341664, “Role of the highly conserved G68 residue in the yeast phosphorelay protein Ypd1: implications for interactions between histidine phosphotransfer (HPt) and response regulator proteins” (BMC Biochemistry, 2019).
Positions count from the first letter of the chain named.

How the values were obtained:
Assay in all cases: other fluorescence titration; 5-IAF-labelled Ypd1-T12C (30 pmol in 1.9 mL) titrated with Sln1-R1, 10 nM to 6 uM; 23.0 °C; 20 mM Tris pH 8.0, 50 mM NaCl, 10 mM MgCl2; excitation 492 nm, emission 515 nm; quadratic fit; 'observed' Kd, three replicate titrations
Conditions in all cases: both partners purified
[1] = target: T1, Ypd1-T12C-G68L, fluorescein-labelled (S. cerevisiae, UniProt Q07688 3-167, T12C | G68L, 5-iodoacetamidofluorescein (5-IAF) on the cysteine introduced at position 12)
T1 construct: Ypd1, HPt protein of Saccharomyces cerevisiae; double mutant made on pET-Ypd1-T12C; also called Ypd1-G68L
T1 sequence: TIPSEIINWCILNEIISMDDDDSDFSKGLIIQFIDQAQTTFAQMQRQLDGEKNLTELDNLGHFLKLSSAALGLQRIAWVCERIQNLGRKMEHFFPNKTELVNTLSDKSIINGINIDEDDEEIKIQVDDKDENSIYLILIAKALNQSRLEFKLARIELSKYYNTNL

[2] = target: T2, Ypd1-T12C~F (fluorescein-labelled Ypd1-T12C) (S. cerevisiae, UniProt Q07688 3-167, T12C, 5-iodoacetamidofluorescein (5-IAF) on the cysteine introduced at position 12 (70-90% of the molecules labelled))
T2 construct: Ypd1, histidine phosphotransfer (HPt) protein of Saccharomyces cerevisiae; YPD1 gene in pET21a(+), T12C; also called WT; 5-IAF labelled Ypd1
T2 sequence: T1 sequence with L66G

[3] = target: T3, Ypd1-T12C-G68E, fluorescein-labelled (S. cerevisiae, UniProt Q07688 3-167, T12C | G68E, 5-iodoacetamidofluorescein (5-IAF) on the cysteine introduced at position 12)
T3 construct: Ypd1, HPt protein of Saccharomyces cerevisiae; double mutant made on pET-Ypd1-T12C; also called Ypd1-G68E
T3 sequence: T1 sequence with L66E

[4] = target: T4, Ypd1-T12C-G68Q, fluorescein-labelled (S. cerevisiae, UniProt Q07688 1-167, T12C | G68Q, 5-iodoacetamidofluorescein (5-IAF) on the cysteine introduced at position 12)
T4 construct: Ypd1, HPt protein of Saccharomyces cerevisiae; double mutant made on pET-Ypd1-T12C; PDB 6M7W is the single mutant Ypd1-G68Q (from pUC-Ypd1, without T12C); also called Ypd1-G68Q
T4 sequence: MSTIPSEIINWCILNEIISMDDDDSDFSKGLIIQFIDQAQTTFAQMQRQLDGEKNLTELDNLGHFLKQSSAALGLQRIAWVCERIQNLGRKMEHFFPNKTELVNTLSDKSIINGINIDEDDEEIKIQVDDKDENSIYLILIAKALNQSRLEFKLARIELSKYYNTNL

[5] = target: T5, Ypd1-T12C-G68V, fluorescein-labelled (S. cerevisiae, UniProt Q07688 3-167, T12C | G68V, 5-iodoacetamidofluorescein (5-IAF) on the cysteine introduced at position 12)
T5 construct: Ypd1, HPt protein of Saccharomyces cerevisiae; double mutant made on pET-Ypd1-T12C; also called Ypd1-G68V
T5 sequence: T1 sequence with L66V

B1: Sln1-R1 (receiver domain of Sln1) (domain or fragment, S. cerevisiae)
chain: TSVKILVVEDNHVNQEVIKRMLNLEGIENIELACDGQEAFDKVKELTSKGENYNMIFMDVQMPKVDGLLSTKMIRRDLGYTSPIVALTAFADDSNIKECLESGMNGFLSKPIKRPKLKTILTEFCAAYQGKKNNK
notes: Receiver domain (R1) of the hybrid sensor histidine kinase Sln1 of Saccharomyces cerevisiae, in the vector pFJS16; neither is said here; also called receiver domain from Sln1
Q: Which results are given for B1?
A: Kd [1]: 1300 nM; Kd [2]: 940 nM; Kd [3]: 500 nM; Kd [4]: 600 nM; Kd [5]: 2900 nM
